Assay results as given in article PMC5909435.

Target: T1, TFAM K4Q4 (acetyl-lysine mimic) (Homo sapiens, UniProt Q00059 43-246, K62Q;K76Q;K111Q;K118Q)
T1 sequence: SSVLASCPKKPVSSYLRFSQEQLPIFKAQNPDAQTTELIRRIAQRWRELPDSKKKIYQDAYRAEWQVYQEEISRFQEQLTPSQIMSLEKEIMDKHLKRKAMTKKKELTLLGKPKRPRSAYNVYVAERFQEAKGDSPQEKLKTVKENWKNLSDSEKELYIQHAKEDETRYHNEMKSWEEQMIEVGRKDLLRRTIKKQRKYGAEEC
Assay: MST

B1: non-specific 18 bp duplex with 13 nt overhang (mixed)
DNA 1: GTCACTGTTCGAGCACCA
DNA 2: CCATAGATAGCATTGGTGCTCGAACAGTGAC
Which Kd does the source give for B1 here?
The Kd was 131 ± 17 nM.
